From paper PMC12027964, “Centrifugation-Based Purification Protocol Optimization Enhances Structural Preservation of Nucleopolyhedrovirus Budded Virion Envelopes” (Insects, 2025)

Biological target: the molecule itself
Assay: cryo-EM structure; GP64 solubilised from purified BV particles with DDM/CHS, SEC fraction B in TN buffer (50 mM Tris-HCl pH 8, 150 mM NaCl) with 0.02% DDM and 0.002% CHS, about 1 mg/mL; single-particle reconstruction (7913 particles, 15 Å); prefusion GP64 model PDB 8YG6 fitted into the map

B1: GP64 envelope fusion protein of Autographa californica multiple nucleopolyhedrovirus (AcMNPV) (natural protein)
chain: AEHCNAQMKTGPYKIKNLDITPPKETLQKDVEITIVETDYNENVIIGYKGYYQAYAYNGGSLDPNTRVEETMKTLNVGKEDLLMWSIRQQCEVGEELIDRWGSDSDDCFRDNEGRGQWVKGKELVKRQNNNHFAHHTCNKSWRCGISTSKMYSRLECQDDTDECQVYILDAEGNPINVTVDTVLHRDGVSMILKQKSTFTTRQIKAACLLIKDDKNNPESVTREHCLIDNDIYDLSKNTWNCKFNRCIKRKVEHRVKKRPPTWRHNVRAKYTEGDTATKGDLMHIQEELMYENDLLKMNIELMHAHINKLNNMLHDLIVSVAKVDERLIGNLMNNSVSSTFLSDDTFLLMPCTNPPAHTSNCYNNSIYKEGRWVANTDSSQCIDFSNYKELAIDDDVEFWIPTIGNTTYHDSWKDASGWSFIAQQKSNLITTMENTKFGGVGTSLSDITSMAEGELAAKLTSFMFGHVVNFVIILIVILFLYCMIRNRNRQY
notes: Native viral protein, no tag; also called prefusion GP64; Frac B; source: purified from recombinant AcMNPV budded virions produced in Sf9 cells (1% DDM / 0.1% CHS extraction, Superdex 200 SEC)
stoichiometry N: 3
